As usually defined, the koff is the first-order rate constant of dissociation. Low values mean a long-lived complex, high ones a short-lived complex.

The target of this test is 2F5 epitope scaffold ES1. The test is described as follows: SPR. Background: Surface plasmon resonance follows binding to a sensor surface in real time, without labels.

B1: 2F5 monoclonal antibody (antibody, V domains shown)
VH: RITLKESGPPLVKPTQTLTLTCSFSGFSLSDFGVGVGWIRQPPGKALEWLAIIYSDDDKRYSPSLNTRLTITKDTSKNQVVLVMTRVSPVDTATYFCAHRRGPTTLFGVPIARGPVNAMDVWGQGITVTISS
VL: ALQLTQSPSSLSASVGDRITITCRASQGVTSALAWYRQKPGSPPQLLIYDASSLESGVPSRFSGSGSGTEFTLTISTLRPEDFATYYCQQLHFYPHTFGGGTRVDVR
The molecule B1 returned a koff of 0.00109 s⁻¹.

For the origin of these results see article PMC3027617 (2011).
